Reference: PMC3020710 (The Journal of Biological Chemistry, 2010)
Where two headings read alike, the source gives them in different places.

B1: His-Sox2 aa 1-240 (domain or fragment)
chain: not shown
B2: His-Sox2 (full length) (natural protein)
chain: not shown

Experiments:
[1] = target: T1, GST-Sall1 (full length) (mouse, UniProt Q9ER74 1-1322); assay: pull-down
T1 sequence (looked up): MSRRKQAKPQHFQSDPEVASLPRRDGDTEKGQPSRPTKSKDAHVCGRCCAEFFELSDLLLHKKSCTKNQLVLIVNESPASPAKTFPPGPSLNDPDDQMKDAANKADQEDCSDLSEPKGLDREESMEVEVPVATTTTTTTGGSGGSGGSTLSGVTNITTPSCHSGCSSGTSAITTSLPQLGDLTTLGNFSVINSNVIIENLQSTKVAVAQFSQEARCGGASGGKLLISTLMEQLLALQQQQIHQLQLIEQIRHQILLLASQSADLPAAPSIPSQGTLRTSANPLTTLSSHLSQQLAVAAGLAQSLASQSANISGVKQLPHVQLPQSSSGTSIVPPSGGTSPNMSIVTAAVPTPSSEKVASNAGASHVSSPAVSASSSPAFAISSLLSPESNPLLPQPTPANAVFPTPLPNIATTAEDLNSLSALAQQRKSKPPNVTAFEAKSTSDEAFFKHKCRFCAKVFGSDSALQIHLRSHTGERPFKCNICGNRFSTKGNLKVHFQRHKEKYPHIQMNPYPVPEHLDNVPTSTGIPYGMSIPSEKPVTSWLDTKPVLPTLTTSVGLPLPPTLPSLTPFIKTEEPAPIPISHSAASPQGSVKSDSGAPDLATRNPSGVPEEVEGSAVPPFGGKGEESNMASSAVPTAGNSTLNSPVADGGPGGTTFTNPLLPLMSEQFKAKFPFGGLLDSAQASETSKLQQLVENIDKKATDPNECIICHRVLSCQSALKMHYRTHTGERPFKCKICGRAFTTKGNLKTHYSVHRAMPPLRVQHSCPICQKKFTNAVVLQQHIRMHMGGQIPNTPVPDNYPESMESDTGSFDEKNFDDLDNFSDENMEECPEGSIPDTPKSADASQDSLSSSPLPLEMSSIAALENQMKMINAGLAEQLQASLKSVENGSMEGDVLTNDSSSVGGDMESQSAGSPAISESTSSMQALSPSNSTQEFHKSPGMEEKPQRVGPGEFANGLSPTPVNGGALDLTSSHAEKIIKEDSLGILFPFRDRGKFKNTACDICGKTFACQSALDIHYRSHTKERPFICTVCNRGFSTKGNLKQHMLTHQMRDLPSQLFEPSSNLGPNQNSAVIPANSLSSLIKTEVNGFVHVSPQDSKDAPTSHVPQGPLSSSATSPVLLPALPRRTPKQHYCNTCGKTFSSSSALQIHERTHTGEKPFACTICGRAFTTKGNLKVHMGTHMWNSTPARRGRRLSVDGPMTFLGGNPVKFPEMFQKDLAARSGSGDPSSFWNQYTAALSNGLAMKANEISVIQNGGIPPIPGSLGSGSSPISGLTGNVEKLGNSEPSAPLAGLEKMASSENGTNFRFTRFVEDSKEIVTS

[2] = target: T1, GST-Sall1 (full length); assay: pull-down; remark: listed apart in the source

Binder | binding result [1] | binding result [2]
B1 | binds | –
B2 | binds | binds
